Test results from the nanobody polyreactivity screen of Harvey et al. (2022).

test: yeast display, Sf9 membrane polyspecificity reagent, FACS + sequencing; frameworks hold sequencing errors
Method in brief: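 Genes from sorted yeast were amplified by colony PCR, read by MiSeq 2 × 250 sequencing and filtered on CDR length. These cells carried a synthetic nanobody library in Saccharomyces cerevisiae BJ5465 and were sorted by FACS into low and high (top ~1%) gates on anti-HA and streptavidin fluorescence. Polyreactivity is labelled according to the gate of origin.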

Sequence	polyreactivity (PSR sort gate)
QVQLVESGGGLVQAGGSLRLSCAASGSTLYKYAMGWYRQAPGKEREFVAAISWSGSSTYYADSVKGRFTISRDNAKNTVYLQMNSLKPEDTAVYYCAALYTHYYWIEYDYWGQGTQVTVSS	low polyreactivity
QVQLVESGGGLVQAGGSLRLSCAASGSTLYRYAMGWYRQAPGKERELVAAISSAGSTHYADSVKGRFTISRDNAKNTVYLQMNSLKTEDTAVYYCADKRYLKYGYWGQGTQVTVSS	high polyreactivity
QVQLVESGGGLVQAGGSLRLSCAASGSTLYRYAMGWYRQAPGKERELVATIRWSGGSTYYADSVKGRFTISRDNAKNTVYLQMNSLKPEDTAVYYCAKRSSYGSSGRYYYWGQGTQVTVSS	high polyreactivity
QVQLVESGGGLVQAGGSLRLSCAASGSTLYSYVMGWYRQAPGKERELVAAIRSSGGSTYYADSVKGRFTISRDNAKNTVYLQMNSLKPEDTAVYYCAKEWKVDVASKFLYHYYYWGQGTQVTVSS	high polyreactivity
QVQLVESGGGLVQAGGSLRLSCAASGSTLYWNAMGWYRQAPGKERELVASITSSGGSTYYADSVKGRFTISRDNAKNTVYLQMNSLKPEDTAVYYCATESWWRYSEYYYWGQGTQVTVSS	low polyreactivity
QVQLVESGGGLVQAGGSLRLSCAASGSTLYWYAMGWYRQAPGKERELVAGISIGGRTNYADSVKGRFTISRDNAKNTVYLQMNSLKPEDTAVYYCNAENTYLGSRYRPYNYWGQGTQVTVSS	low polyreactivity
QVQLVESGGGLVQAGGSLRLSCAASGSTQYKYAMGWNRQAPGKERELVAAISWSGSSTYYADSVKGRFTISRDNAKNTVYLQLNSLKREDTAVYYCAAYPRPYIGYTDGYVWYEFDYWGQGTQVTVSS	low polyreactivity
QVQLVESGGGLVQAGGSLRLSCAASGSTQYPYAMGWYRQAPGKERELDAAISWSGGSTYYADSVKGRFTISRDPAQNTVYLQMNSLNPEDTAVYYCAAVYHFQYGAYDYWGQGTQVTVSS	high polyreactivity
QVQLVESGGGLVQAGGSLRLSCAASGSTQYSYAMGWYRQAPGKERELVAAINSGSNTYYADSVKGRFTISRDNAKNTVYLQMNSLKPEDTAVYYCAAKGIIYTGYDGARRAYGYWGQGTQVTVSS	high polyreactivity
QVQLVESGGGLVQAGGSLRLSCAASGSTRIYDMGCYRQAPAKERELVAAISSTGSTYYADSVKGRFTISRDNAKNTVYLQMNSLKPEDTAVYYCAAARYYRYDRYYSWGQGTQVTVTS	high polyreactivity
QVQLVESGGGLVQAGGSLRLSCAASGSTRRYVMGWYRQAPGKERELVAVISRGGSTYYADSVKGRFTISRDNAKNTVNLQMNSLKPEDTAVYYCNVQPVIPRGGDYWGQGTQVTVSS	high polyreactivity
QVQLVESGGGLVQAGGSLRLSCAASGSTRYNAMGWYRQAPGKERELVAAINTSGGSTRYADSVKGRFTISRDNAKNPVYLQMNSLKPEDTAVYYCNAGNSIPGVQKVIVHGLDYWGQGTQVTVSS	high polyreactivity
QVQLVESGGGLVQAGGSLRLSCAASGSTSDEYAMGWYRPAPGKERELVASISSDDTSTHYADSVKGRFTISRDNAKNTVYLQMNSLKPEDTAVYYCAARNTPAYIDYNYWGQGTQVTVSS	low polyreactivity
QVQLVESGGGLVQAGGSLRLSCAASGSTSDINAMGLYRQAPGKERELVAVITDSSNTDYADSVKGRFTISRDNAKNTVYLQMNSLKPEDTAVYYCAADRDEPDPYDYWGQGTQVTVSS	low polyreactivity
QVQLVESGGGLVQAGGSLRLSCAASGSTSDIYAMGWYRQAPGKEREFVAAISLTGGTTYYADSVKGRFTISCDNAKNTVYLQMNSLKPEDTAVYYCNADVGWWGYDDDYWGQGTQVTVSS	high polyreactivity
QVQLVESGGGLVQAGGSLRLSCAASGSTSGQNAKGWYRQPPGNERELVAAISSSAGSTYADSVKGRFTISRDNAKNTVYLQMNSLKPEDTAVYYCNVPYYYTRGSYGYWGQGTQVTVSS	low polyreactivity
QVQLVESGGGLVQAGGSLRLSCAASGSTSKWYAMGWYRQAPGKERELVAAITKTGGRTYYADSVKGRFTFSRDYAKNTVYLQMNSLKPEDTAVYYCAVEYLRGFIVIYDNWGQGTQVTVSS	high polyreactivity
QVQLVESGGGLVQAGGSLRLSCAASGSTSPIYAMGWYRQAPGKERELVAAINGVGSTNYADSVKGRFTISRDNAKNTVYLQMNSLKPEDTAVYYCNTRYSPGYQGTEVDYWGKGTQVTVSS	low polyreactivity
QVQLVESGGGLVQAGGSLRLSCAASGSTSPNAMGWYRQAPGKERELVAAIWSGGTYYADSVKGRFTISRDNAKNTVYLQMNSLKPEDTAVYYCAVTGVYRGFRYGYWGQGTQVTVSS	low polyreactivity
QVQLVESGGGLVQAGGSLRLSCAASGSTSPRNAMGWYRQAPGKERELVAAISSGGRTNYADSVKARFTISRDNAKNTDYLQMNSLKREDTAVYYCAAEVQSTYWGQGTQVTVSS	low polyreactivity
QVQLVESGGGLVQAGGSLRLSCAASGSTSQRNAMGWYRQAPGKERELVAAISRSGGSTSYADSVKGRFTISRDNAKNTVYLQMNSLKPEDTAVYYCNTDRRIYRVWYYYWGQGTQVTVSS	high polyreactivity

Sequence	polyreactivity (PSR sort gate)
QVQLVESGGGLVQAGGSLRLSCAASGSTSQRNAMGWYRQAPGKERELVAGITTSGGRTYYADSVKGRFTISRDNAKNTVYLQMNSLKPEDTAVYYCAARTQIWKYRGYYSWGQGTQVTVSS	high polyreactivity
QVQLVESGGGLVQAGGSLRLSCAASGSTSRGNAMGWYRQAPGKERELVAAISYIGGTTYYADSVKGRFTISRDNAKNTVYLQMNSLKPEDTAVYYCAADLYRSILKPDYDYWGQGTQVTVSS	high polyreactivity
QVQLVESGGGLVQAGGSLRLSCAASGSTSRLNAMGWYRQAPGKERELVAAISGSGGRTYYADSVKGRFTISRDTAKTTVYLQMNSQKPEDTAVYYCNAAYSAKVHPEMYYWGPGTQVTVSS	high polyreactivity
QVQLVESGGGLVQAGGSLRLSCAASGSTSSDYAMGWYRQPPGKERELVASISRSGGSTNYADSVKGRFTISRDNAKNTVYLQMNSLKPEDTAVYYCAARQSYRYYWGKGTQVTVSS	high polyreactivity
QVQLVESGGGLVQAGGSLRLSCAASGSTSSLYTMGWYRQAPGKERELVAAITRSGGGTYYADSVKGRFTSSRDNAKNTVYLQMNSLKPEDTAVYYCAAVQSEGRMGYWGQGTQVTVSS	high polyreactivity
QVQLVESGGGLVQAGGSLRLSCAASGSTSSTYSMGWYRQAPGKERELVATINWDGASTYYADSVKGRFTISRDNAKNTVYLQMNSLIPEDTAVYYCAAQSGAVHFLEDDYWGHGTQVTVSS	low polyreactivity
QVQLVESGGGLVQAGGSLRLSCAASGSTSSVYAMGWYRQAPGKEREFVASITRRTGITFYADSVKGRFTISRDNAKNTVYLQMNSLKPEDTAVYYCATRGGYPKGYGYLAFNYWGQGTQVTVSS	high polyreactivity
QVQLVESGGGLVQAGGSLRLSCAASGSTSTTYAMGWYRQAPWKERELVAAISWGGTRTYYADSVKGRFTISRDNAKNTVYLQMNSLKPEDTAVYYCNAGRRSSSGHYGYNYWGQGTQVTVSS	high polyreactivity
QVQLVESGGGLVQAGGSLRLSCAASGSTSVVNAMGWSRQAPGKERELVAVITISAVSTYYADSVKGRFTISRDNAKNTVYLQMNSLKPEDTAVYYCAARSYVIYDNFEYDYWGQGTQVTVSS	high polyreactivity
QVQLVESGGGLVQAGGSLRLSCAASGSTSYDNAMGWYRQAPGKERELDASISSDGSTNYADSVKGRFTISRDNAKNTVYLQMNSLKPEDTAVYYCNVEVTRGLSHDPEYDYWGQGTQVTVSS	low polyreactivity
QVQLVESGGGLVQAGGSLRLSCAASGSTSYNAMGWYRQPPGKERELVAAITSSGGRTYYADSVKGRFTISRDNAKNTVYLQMNSLKPEDTAVYYCNAPTSARRQGKDYGYWGQGTQVTVSS	high polyreactivity
QVQLVESGGGLVQAGGSLRLSCAASGSTSYPYAMGWYIQAPGQERELVATINYSGARTYYADSVKGRFTISRDNAKNTVYFQMNSLKPEDTAVYYCAATVYWRLEHDYWGQGTQVTVSS	low polyreactivity
QVQLVESGGGLVQAGGSLRLSCAASGSTSYRNAMGWYRQAPGIEREFVAAISWSGGSTYYADSVKGRFTISRDNAKNTVYLQMNSLKPEDTAVYYCATTVTQWGQGTQVTVSS	low polyreactivity
QVQLVESGGGLVQAGGSLRLSCAASGSTSYRYAMGWYRQAPGKERELVAAIPWISDSTYYADSVKGRFTISRDNAKNTVVLQMNSLKQEDTAVYYCNTDPLVTTVTFNYWGQGTQVTVSS	low polyreactivity
QVQLVESGGGLVQAGGSLRLSCAASGSTSYYNAMGWYRQAPGKERELVAAISYSGGRTYYADSVKGRFTISRDNAKNTVYLQMNSLKPEDTAVYYCAKTFRGQPYLRYRYYYWGQGTQVTVSS	high polyreactivity
QVQLVESGGGLVQAGGSLRLSCAASGSTVFKNTMGWYRQAPGKEREFVAAIRWSTSRTYYADSVKGRFTISRDNAKNTVYLQMNSLKPEDTAVSYCNAGTSLSRRYPEDYYWGQGTLVTVSS	high polyreactivity
QVQLVESGGGLVQAGGSLRLSCAASGSTVGSYAMGWYRQAPGKERELVAAITLRTDSTYYADSVKGRFTISRDNAKNTVYLQMNSLKPEETAVYYCARRYRYGYDYWGQGTQVTVSS	low polyreactivity
QVQLVESGGGLVQAGGSLRLSCAASGSTVGVNAMGWYRQAPGKERELVAALSNGDNTYYADSVKGRFTISRDHAKNTVYLQMNSLKPEDTAVYYCAADQYWSWIYYPVVESDYWGQGTQVTVSS	low polyreactivity
QVQLVESGGGLVQAGGSLRLSCAASGSTVKYAMGWYRQAPGKERELVAAISSRGGSTSYADSVNGRFTISRDNAKNTVYLQMNSLKPEDTAVYSCARRIRQQRFGGNYWGQGTQVTVSS	high polyreactivity
QVQLVESGGGLVQAGGSLRLSCAASGSTVVYNVMGWYRQAPGKEREVVAAFRWRGGSTYADSVKGRFTISRDNAKNTVYLQMNCLKPEDTAVYYCAAGIPRYWYAGHYDYWGQGTQVTVSS	low polyreactivity
